Paper PMC4579573, “Higher -Order Assembly of BRCC36–KIAA0157 Is Required for DUB Activity and Biological Function” (Molecular cell, 2015)

Key:
[1] = target: the molecule itself; assay: SEC-MALS; complexes and subcomplexes purified from insect cells; size exclusion chromatography coupled to multi-angle light scattering (Figures S1B-E and S8E-G)
[2] = target: the molecule itself; assay: crystal structure; CfBRCC36–KIAA0157ΔC, seleno-methionine-SAD, two heterodimers in the asymmetric unit, 2.55 Å

B1: C. floridanus BRISC complex (complex)
chain 1: MDDSSLQKVELQTDVYMVCLQHALSTENFEVMGLLIGNFACGIAKISAVIILRRLDKKKDRVEISSEQLLKAAAEAERLTVELNRPMRVLGWYHSHPHITVCPSHVDVRTQATYQTMDHSFVGLIFSVFSEGKESKEHEIFLNCFQSDNGEATEIPLEIVHTPDISDRCLRTMTDLSKILVQEEEDMAEACKDHPDVLASIHNNAVRTRALIHITDIITKPLVQTFEKRIALNKLRATHLQRQLQELQKMCNG
chain 2: MADSDLLVTISGAALSLLFFENVRSVGNQMGFLLGEALEFIVKTYTDSDNQVETVKIHINVEAIVTCPLADLLHDSTNHINKEKLKDFVRDKSKQVIGWFCFRRNTTNLTLTLKDKLLHKQFASHFSGVNGCKEDFFLTCLLNASTSETSGTHKFRHVFLRHNKRGMFEPISLKINNLGDDASRHDGSDYKPTPVRKSTRTPDSFTKLIESLNLDVARIDGLDSAMLIQKAAEHHLMSLIPKVCESDLEVAELEKQVHELKIKIATQQLAKRLKINGENCDRISKASKDNCFSEKIDSSKKNEVRIGDDACLQREHIPSCTQSVGPNNRTVCRNTAACIAKSAEKSRRAGRSNLQESGNQQQETQNFFTNSRRSIPEIATESICQEGSEISMGRGRGSGRGSHEFTPGMKKIRRTPGTSHMHSSRERSTTPPEQDFSDAECPISSPVLRSYSQVTKKTNLDKCNSMAPLDI
chain 3: MLNQQHPLLSTIDSYIEPLLKRVLQTKRLGVCCGLIKLDSVSSSCNKSKNDCFKLSIPYAGEHLVWSVLFDSQYPEMGPDFIFNDQSFLADPDINTLSTWIPSLTKWNPNDIDALLNVLSELLLYYKEHQLHLLGKQGDRLQFEYSTLVGETEISREDIEVIMLPLGTKPTEARFLIRIVMDYSRLPPRINKSQNDEAMLIIMFYGPDWNRIIPQLYLSKTLEDIFGGPESLHIPPFPSSKYLMDYVPEVKKFIDEKIHNVVQSFESRKSFITVLIVSQRGSILEYDAIEFNWISMLLEHRDFHFLIHFHLPSTFPKEKPQITLQSVYHMTSQGTLYKEVLDDTPYSPRWQIILMVDKLLTYIMENAVQKFQANSMKNRF
stoichiometry N [1]: 2

B2: CfBRCC36 (enzyme, C. floridanus, UniProt E2AXC7 1-253, looked up)
chain: MDDSSLQKVELQTDVYMVCLQHALSTENFEVMGLLIGNFACGIAKISAVIILRRLDKKKDRVEISSEQLLKAAAEAERLTVELNRPMRVLGWYHSHPHITVCPSHVDVRTQATYQTMDHSFVGLIFSVFSEGKESKEHEIFLNCFQSDNGEATEIPLEIVHTPDISDRCLRTMTDLSKILVQEEEDMAEACKDHPDVLASIHNNAVRTRALIHITDIITKPLVQTFEKRIALNKLRATHLQRQLQELQKMCNG
notes: BRCC36 of Camponotus floridanus, residues 1-253; The crystal of PDB 5CW4 held seleno-methionine protein; also called C. floridanus BRCC36; B36; source: insect cells (MultiBac expression system), co-expressed with its partners, purified
binding result [2]: binds

B3: zebrafish BRISC complex (complex)
chain 1: MAVNAVHLESDAFLVCMNHALSTEKEEVMGLCIGEVDTNRIVHIHSVIILRRSDKRKDRVEISPEQLSAASTEAERLAEMTGRPMRVVGWYHSHPHITVWPSHVDVRTQAMYQMMDQGFVGLIFSCFIEDKNTKTGRVLYTCFQSVQAQKGSEYERIEIPIHVVPHEAIGKVCLESAVELPRILCQEEQDTYRRIHSLTHLDPITKIHNGSVFTKNLCSQMSAISGPLLQWLEDRLEQNKQSIITLQKEKELLTQELAAL
chain 2: not shown
chain 3: MNSLSPELALSRISPELRPLLCSIVRNGRVGLDSSSCLRITDLKSGCTSLMPGPCCDRFKLHIPYAGETLKWDIIFNARDPELPPDFIFGEDADFLPEPSELPNLVSWDSGKPECLLLLVKEMLQQYHQYQCQRLRDSSRLLFEYDSLLEDPNYGRNMEIYAGRKNSWTGEFSARFLLKLPVDFSNIPIYLLKDTALDPGEDVALLSVSFEDAEATQVFPKLYLSPSIEHALGGSSALHIPAFPSGGCLIDYVPQVCQLLTNKVQYVIQGYHKRREYIAAFLSHFGMGVVEYDAVGFTKLTLLLMWKDFCFLVHVDLPLYFPRDQPTLTFQSIYHFTSSGQLYSQVQKSYPYSPRWDGNEMAKRAKAYFKSFIPQFQEGAFANGKL
chain 4: METTEPGQADGEERMMDLRPRTRSNPEGAEDRRSSTGSLNSSLPSAPQPAVGSRVEGEGEAASSDSPPVSATAIAATASVPVAAVGNTTTTNTASLPAMSPAVKERPKPSQPTMPTQIPPSAELHLRAPRVNCPEKVIICLDLSEEMSLQKLESINGSKTNALNISQKMIEMFVRTKHKIDKRHEFALVVVNDDAMWLSGFTSDPRELCSCLYDLETNVCESFNLEDLFNVILQKIELPQMENIQTIPPPFVVRTLLVFSRHAGMLQFNPSDAVKKMLQSPYFFFDVVFLHNGTEEQTEDTSWKDVYASFCELDTKGMCYRFEVSLCGPAIELHNCMAKLLCHPLQRPFQSHASYSLLEDEDTLENEATV
stoichiometry N [1]: 2

B4: Dr BRCC36–KIAA0157 binary complex (complex)
chain 1: MAVNAVHLESDAFLVCMNHALSTEKEEVMGLCIGEVDTNRIVHIHSVIILRRSDKRKDRVEISPEQLSAASTEAERLAEMTGRPMRVVGWYHSHPHITVWPSHVDVRTQAMYQMMDQGFVGLIFSCFIEDKNTKTGRVLYTCFQSVQAQKGSEYERIEIPIHVVPHEAIGKVCLESAVELPRILCQEEQDTYRRIHSLTHLDPITKIHNGSVFTKNLCSQMSAISGPLLQWLEDRLEQNKQSIITLQKEKELLTQELAAL
chain 2: not shown
stoichiometry N [1]: 2
